For series [1], the target named is T1, myc-tagged full-length GTRAP4-41 (rat, UniProt Q9QWN8 2-2388).
T1 construct: tested from solubilized cell extract; also called myc-tagged GTRAP4-41; not shown: myc tag of the myc-tagged pRK5 vector
The series is described as follows: co-immunoprecipitation from transfected HEK 293T cells.

Series [2] deals with the molecule itself. The series is described as follows: immunoblot of tissue homogenates and purified protein. (In general: In western blotting, separated proteins are transferred to a membrane and probed.)
Series [3] addresses T2, EAAT4, full-length glutamate transporter (rat, UniProt O35921 1-561).
T2 construct: whole, on cells; tested from detergent lysates; also called rEAAT4; rat EAAT4
T2 sequence (looked up): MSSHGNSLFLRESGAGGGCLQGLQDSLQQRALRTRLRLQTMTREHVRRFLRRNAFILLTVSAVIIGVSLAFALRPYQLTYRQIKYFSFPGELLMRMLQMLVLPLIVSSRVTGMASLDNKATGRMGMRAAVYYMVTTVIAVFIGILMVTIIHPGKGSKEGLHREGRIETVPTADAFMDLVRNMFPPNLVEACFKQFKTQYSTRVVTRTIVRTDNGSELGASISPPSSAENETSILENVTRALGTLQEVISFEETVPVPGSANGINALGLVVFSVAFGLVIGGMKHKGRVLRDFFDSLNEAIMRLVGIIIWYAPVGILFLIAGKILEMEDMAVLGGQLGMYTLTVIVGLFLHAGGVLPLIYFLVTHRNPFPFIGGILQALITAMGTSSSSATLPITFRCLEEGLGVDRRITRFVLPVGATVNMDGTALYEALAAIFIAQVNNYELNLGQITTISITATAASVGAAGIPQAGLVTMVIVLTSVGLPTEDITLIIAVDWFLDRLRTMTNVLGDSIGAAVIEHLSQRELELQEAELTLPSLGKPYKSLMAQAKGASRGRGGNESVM
The series is described as follows: co-immunoprecipitation from rat brain extract, Western blotting.

For series [4], the target named is T3, GLAST glutamate transporter (rat, UniProt P24942 1-543).
T3 construct: whole, on cells; Native protein in solubilized rat brain
T3 sequence (looked up): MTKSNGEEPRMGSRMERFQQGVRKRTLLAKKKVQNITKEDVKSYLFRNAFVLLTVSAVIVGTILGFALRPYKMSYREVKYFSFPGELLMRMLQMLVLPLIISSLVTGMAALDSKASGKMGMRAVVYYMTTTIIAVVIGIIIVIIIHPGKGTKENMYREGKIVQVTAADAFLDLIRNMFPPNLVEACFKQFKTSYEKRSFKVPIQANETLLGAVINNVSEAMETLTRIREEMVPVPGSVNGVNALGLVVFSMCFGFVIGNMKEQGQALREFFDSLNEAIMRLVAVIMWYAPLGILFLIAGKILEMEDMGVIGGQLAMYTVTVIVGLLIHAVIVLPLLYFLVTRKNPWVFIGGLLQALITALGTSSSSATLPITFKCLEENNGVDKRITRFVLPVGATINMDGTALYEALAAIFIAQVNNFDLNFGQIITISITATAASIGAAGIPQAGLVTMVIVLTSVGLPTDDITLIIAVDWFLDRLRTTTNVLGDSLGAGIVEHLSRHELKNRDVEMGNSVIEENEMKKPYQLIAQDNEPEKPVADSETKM
The series is described as above.

For series [5], the target named is T4, GLT-1 glutamate transporter (rat, UniProt P31596 1-573).
T4 construct: whole, on cells; Native protein in solubilized rat brain
The series is described as above.

The target in series [6] is T5, GST (glutathione S-transferase) alone (UniProt P08515 1-218 = GST).
T5 construct: Control, immobilized on glutathione-Sepharose
The series is described as follows: cell-free binding to protein immobilized on glutathione-Sepharose. On the procedure:
The interaction of GTRAP3-18 with EAAC1 was examined using in vitro and in vivo methods. For in vitro cell-free binding, EAAC1 was expressed as a fusion protein with glutathione S-transferase (GST), and GTRAP3-18 was produced and labeled with [^35S]-methionine by in vitro transcription and translation. Purified GST or GST-EAAC 1 fusion proteins immobilized on glutathione-Sepharose were incubated with [^35S]-labeled GTRAP3-18 protein. GTRAP3-18 specifically binds to immobilized GST-EAAC1 but not to GST alone, indicating an in vitro interaction.

Series [7] concerns the target T2, EAAT4, full-length glutamate transporter. Nature of the series: co-immunoprecipitation from transfected HEK293 cells. The procedure:
(§1) Immunoprecipitation experiments were performed to test if EAAC1 and GTRAP3-18 interact in vivo. This was first examined in transfected HEK293 cells using amino-terminus c-myc tagged GTRAP3-18. EAAC1 is co-immunoprecipitated with c-myc-GTRAP3-18 in the cell extract prepared from co-expression cells but not from EAAC1 or c-myc-GTRAP3-18 single expression cells. […] This interaction was specific, since EAAT4, another neuronal glutamate transporter subtype, is not immunoprecipitated with c-myc-GTRAP3-18. Identical results are obtained using COS-7 and C6 glioma cell lines.

The target in series [8] is T6, truncated EAAC1 lacking the interacting carboxy-terminal domain (lacking the last 93 amino acids) (UniProt P51907 1-430).
T6 construct: domain: EAAC1 lacking the last 93 amino acids
T6 sequence (looked up): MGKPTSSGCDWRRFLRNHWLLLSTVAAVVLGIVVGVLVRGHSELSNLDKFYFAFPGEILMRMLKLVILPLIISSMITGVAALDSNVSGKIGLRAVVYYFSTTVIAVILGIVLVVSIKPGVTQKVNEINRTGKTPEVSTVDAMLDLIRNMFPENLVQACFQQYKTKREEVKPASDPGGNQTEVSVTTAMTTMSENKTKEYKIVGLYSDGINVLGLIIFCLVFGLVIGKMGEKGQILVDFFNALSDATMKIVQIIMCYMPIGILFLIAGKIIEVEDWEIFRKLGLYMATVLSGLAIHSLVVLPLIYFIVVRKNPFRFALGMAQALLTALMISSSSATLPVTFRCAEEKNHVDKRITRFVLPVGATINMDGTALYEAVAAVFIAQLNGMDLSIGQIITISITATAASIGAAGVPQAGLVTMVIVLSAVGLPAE
Described as above. On the procedure: as §1

T4 sequence (P31596 whole entry): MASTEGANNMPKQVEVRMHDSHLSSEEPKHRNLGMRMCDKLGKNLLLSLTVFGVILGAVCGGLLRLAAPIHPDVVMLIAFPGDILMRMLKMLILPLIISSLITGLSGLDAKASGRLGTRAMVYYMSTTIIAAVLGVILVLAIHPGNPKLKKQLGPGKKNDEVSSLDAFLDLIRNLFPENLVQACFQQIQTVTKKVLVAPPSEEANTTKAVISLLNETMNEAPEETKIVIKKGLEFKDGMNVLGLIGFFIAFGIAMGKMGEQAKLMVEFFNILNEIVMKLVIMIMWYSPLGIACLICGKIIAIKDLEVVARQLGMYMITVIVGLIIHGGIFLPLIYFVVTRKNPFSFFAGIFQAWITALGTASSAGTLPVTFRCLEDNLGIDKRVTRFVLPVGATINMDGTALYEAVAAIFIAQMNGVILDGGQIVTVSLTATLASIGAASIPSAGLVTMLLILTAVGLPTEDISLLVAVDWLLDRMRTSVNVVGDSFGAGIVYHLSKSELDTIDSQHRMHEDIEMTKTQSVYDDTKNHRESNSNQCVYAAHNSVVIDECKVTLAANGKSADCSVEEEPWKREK
T5 sequence (P08515 whole entry): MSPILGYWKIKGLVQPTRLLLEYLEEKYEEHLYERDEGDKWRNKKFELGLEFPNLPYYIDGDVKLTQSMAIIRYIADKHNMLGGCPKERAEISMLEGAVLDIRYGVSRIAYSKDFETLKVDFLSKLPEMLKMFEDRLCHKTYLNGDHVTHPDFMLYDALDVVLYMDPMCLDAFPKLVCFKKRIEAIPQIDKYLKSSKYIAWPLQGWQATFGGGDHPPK
T1 sequence (Q9QWN8 other isoform, or with tags, fused parts or gaps): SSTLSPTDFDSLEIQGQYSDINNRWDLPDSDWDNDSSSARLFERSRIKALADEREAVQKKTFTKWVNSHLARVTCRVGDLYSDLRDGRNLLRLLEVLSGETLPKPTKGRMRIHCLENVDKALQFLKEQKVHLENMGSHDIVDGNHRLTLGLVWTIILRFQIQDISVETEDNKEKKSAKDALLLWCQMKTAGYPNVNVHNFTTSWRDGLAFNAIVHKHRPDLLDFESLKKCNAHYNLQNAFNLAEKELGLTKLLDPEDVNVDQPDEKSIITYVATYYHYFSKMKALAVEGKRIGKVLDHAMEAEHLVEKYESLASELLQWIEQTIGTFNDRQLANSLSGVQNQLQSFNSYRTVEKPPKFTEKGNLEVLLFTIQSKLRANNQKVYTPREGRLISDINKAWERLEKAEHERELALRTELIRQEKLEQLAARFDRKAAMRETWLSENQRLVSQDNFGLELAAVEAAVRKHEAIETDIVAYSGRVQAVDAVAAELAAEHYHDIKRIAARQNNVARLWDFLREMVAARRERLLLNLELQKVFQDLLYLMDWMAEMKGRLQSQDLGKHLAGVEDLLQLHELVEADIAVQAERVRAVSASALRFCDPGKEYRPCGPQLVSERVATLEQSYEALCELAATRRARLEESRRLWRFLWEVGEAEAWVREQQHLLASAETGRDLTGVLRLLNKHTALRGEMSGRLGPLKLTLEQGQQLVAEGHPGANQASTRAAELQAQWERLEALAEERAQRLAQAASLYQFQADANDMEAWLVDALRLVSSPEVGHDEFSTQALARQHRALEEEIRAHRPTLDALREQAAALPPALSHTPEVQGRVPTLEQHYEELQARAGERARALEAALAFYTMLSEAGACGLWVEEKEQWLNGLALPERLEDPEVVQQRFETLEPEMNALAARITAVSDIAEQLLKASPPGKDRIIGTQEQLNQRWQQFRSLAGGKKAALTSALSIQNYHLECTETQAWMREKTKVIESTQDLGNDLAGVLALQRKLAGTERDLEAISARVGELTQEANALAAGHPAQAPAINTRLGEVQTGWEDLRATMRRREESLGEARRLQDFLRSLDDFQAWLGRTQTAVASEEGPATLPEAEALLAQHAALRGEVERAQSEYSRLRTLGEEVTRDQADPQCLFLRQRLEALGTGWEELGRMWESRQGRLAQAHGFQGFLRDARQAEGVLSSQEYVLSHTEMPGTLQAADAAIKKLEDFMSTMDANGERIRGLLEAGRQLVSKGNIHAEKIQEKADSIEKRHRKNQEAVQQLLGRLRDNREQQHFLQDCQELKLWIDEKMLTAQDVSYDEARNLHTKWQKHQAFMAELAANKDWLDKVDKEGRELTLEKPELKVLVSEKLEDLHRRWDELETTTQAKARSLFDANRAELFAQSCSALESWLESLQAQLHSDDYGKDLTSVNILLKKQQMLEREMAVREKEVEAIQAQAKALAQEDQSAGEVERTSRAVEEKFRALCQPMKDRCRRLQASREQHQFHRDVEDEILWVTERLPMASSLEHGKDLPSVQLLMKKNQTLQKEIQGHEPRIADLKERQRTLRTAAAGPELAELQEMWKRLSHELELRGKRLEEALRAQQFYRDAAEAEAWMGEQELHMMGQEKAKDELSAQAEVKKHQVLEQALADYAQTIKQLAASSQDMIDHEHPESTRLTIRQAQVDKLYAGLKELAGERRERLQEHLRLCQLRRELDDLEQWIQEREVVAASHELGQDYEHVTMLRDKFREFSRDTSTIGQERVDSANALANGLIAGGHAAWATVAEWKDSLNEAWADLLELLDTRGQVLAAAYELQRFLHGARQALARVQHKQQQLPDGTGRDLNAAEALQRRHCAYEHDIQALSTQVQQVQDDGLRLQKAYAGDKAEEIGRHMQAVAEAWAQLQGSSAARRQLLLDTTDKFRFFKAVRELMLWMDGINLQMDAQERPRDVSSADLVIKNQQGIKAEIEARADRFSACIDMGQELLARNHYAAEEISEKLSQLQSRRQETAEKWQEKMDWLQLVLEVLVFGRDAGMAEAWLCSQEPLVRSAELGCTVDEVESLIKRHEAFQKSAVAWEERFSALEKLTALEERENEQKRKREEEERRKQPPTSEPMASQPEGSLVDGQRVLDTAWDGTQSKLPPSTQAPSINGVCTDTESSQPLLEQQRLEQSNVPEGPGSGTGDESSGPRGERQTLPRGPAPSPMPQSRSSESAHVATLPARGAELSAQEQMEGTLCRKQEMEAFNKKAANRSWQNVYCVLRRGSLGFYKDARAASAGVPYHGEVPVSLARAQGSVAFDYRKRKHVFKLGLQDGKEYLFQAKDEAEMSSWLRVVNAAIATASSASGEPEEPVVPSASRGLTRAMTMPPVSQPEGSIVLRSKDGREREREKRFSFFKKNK

B1: myc-tagged full-length GTRAP4-48 (other)
chain: MSIRLPHSIDRSASKKQSHLSSPIASWLSSLSSLGDSTPERTSPSHHRQPSDTSETTAGLVQRCVIIQKDQHGFGFTVSGDRIVLVQSVRPGGAAMKAGVKEGDRIIKVNGTMVTNSSHLEVVKLIKSGAYAALTLLGSSPPSVGVSGLQQNPSVAGVLRVNPIIPPPPPPPPLPPPQHITGPKPLQDPEVQKHATQILWNMLRQEEEELQDILPPCGETSQRTCEGRLSVDSQEADSGLDSGTERFPSISESLMNRNSVLSDPGLDSPQTSPVILARVAQHHRRQGSDAALLPLNHQGIDQSPKPLIIGPEEDYDPGYFNNESDIIFQDLEKLKSHPAYLVVFLRYILSQADPGPLLFYLCSEVYQQTNPKDSRSLGKDIWNIFLEKNAPLRVKIPEMLQAEIDLRLRNNEDPRNVLCEAQEAVMLEIQEQINDYRSKRTLGLGSLYGENDLLGLDGDPLRERQMAEKQLAALGDILSKYEEDRSAPMDFAVNTFMSHAGIRLRESRSSCTAEKTQSAPDKDKWLPFFPKTKKQSSNSKKEKDALEDKKRNPILRYIGKPKSSSQSIKPGNVRNIIQHFENSHQYDVPEPGTQRLSTGSFPEDLLESDSSRSEIRLGRSGSLKGREEMKRSRKAENVPRPRSDVDMDAAAEAARLHQSASSSASSLSTRSLENPTPPFTPKMGRRSIESPNLGFCTDVILPHLLEDDLGQLSDLEPEPEVQNWQHTVGKDVVANLTQREIDRQEVINELFVTEASHLRTLRVLDLIFYQRMRKENLMPREELARLFPNLPELIEIHNSWCEAMKKLREEGPIIRDISDPMLARFDGPAREELQQVAAQFCSYQSVALELIRTKQRKESRFQLFMQEAESHPQCRRLQLRDLIVSEMQRLTKYPLLLENIIKHTEGGTSEHEKLCRARDQCREILKFVNEAVKQTENRHRLEGYQKRLDATALERASNPLAAEFKSLDLTTRKMIHEGPLTWRISKDKTLDLQVLLLEDLVVLLQRQEERLLLKCHSKTAVGSSDSKQTFSPVLKLNAVLIRSVATDKRAFFIICTSELGPPQIYELVALTSSDKNIWMELLEEAVQNATKHPGAAPIPIHPSPPGSQEPAYQGSTSSRVEINDSEVYHTEKEPKKLPEGPGPEQRVQDKQLIAQGEPVQEEDEEELRTLPRAPPSLDGENRGIRTRDPVLLALTGPLLMEGLADAALEDVENLRHLILWSLLPGHTVKTQAAGEPEDDLTPTPSVVSITSHPWDPGSPGQAPTISDSTRLARPEGSQPEGEDVAVSSLAHLPPRTRSSGVWDSPELDRNPAAEAASTEPAASYKVVRKVSLLPGGGVGAAKVAGSNAIPDSGQSESELSEVEGGAQATGNCFYVSMPAGPLDSSTEPTGTPPSPSQCHSLPAWPTEPQPYRGVRGGQCSSLVRRDVDVIFHTIEQLTIKLHRLKDMELAHRELLKSLGGESSGGTTPVGSFHTEAARWTDYSLSPPAKEALASDSQNGQEQGSCPEEGSDIALEDSATDTAVSPGP
notes: tested from solubilized cell extract; also called myc-tagged GTRAP4-48; not shown: myc tag of the myc-tagged pRK5 vector
For B1, the binding result in series [1] is on record as “no binding”.

B2: GTRAP3-18 (glutamate transporter EAAC1 associated protein), full-length (other)
chain: MDVNLAPLRAWDDFFPGSDRFARPDFRDISKWNNRVVSNLLYYQTNYLVVAAMMISVVGFLSPFNMILGGIIVVLVFTGFVWAAHNKDILRRMKKQYPTAFVMVVMLASYFLISMFGGVMVFVFGITFPLLLMFIHASLRLRNLKNKLENKMEGIGLKKTPMGIILDALEQQEDSINKFADYISKARE
notes: Used for native GTRAP3-18 of rat brain and tissue homogenates, for 'purified GTRAP3-18 protein' and for GTRAP3-18 expressed where no tag is stated; also called rat JWA protein homologue
On to B2, for which the binding result is reported as “binds” in series [2], “no binding” in series [3], “no binding” in series [4] and “no binding” in series [5].

B3: [35S]-methionine labelled GTRAP3-18 made by in vitro transcription and translation (other)
chain: MDVNLAPLRAWDDFFPGSDRFARPDFRDISKWNNRVVSNLLYYQTNYLVVAAMMISVVGFLSPFNMILGGIIVVLVFTGFVWAAHNKDILRRMKKQYPTAFVMVVMLASYFLISMFGGVMVFVFGITFPLLLMFIHASLRLRNLKNKLENKMEGIGLKKTPMGIILDALEQQEDSINKFADYISKARE
modifications: labeled with [35S]-methionine
notes: also called [35S]-labeled GTRAP3-18 protein
Turning to B3, in series [6], the binding result is on record as “no binding”.

B4: amino-terminus c-myc tagged GTRAP3-18 (other)
chain: MDVNLAPLRAWDDFFPGSDRFARPDFRDISKWNNRVVSNLLYYQTNYLVVAAMMISVVGFLSPFNMILGGIIVVLVFTGFVWAAHNKDILRRMKKQYPTAFVMVVMLASYFLISMFGGVMVFVFGITFPLLLMFIHASLRLRNLKNKLENKMEGIGLKKTPMGIILDALEQQEDSINKFADYISKARE
notes: Expressed in HEK293 (also COS-7 and C6 glioma) cells; also called c-myc-GTRAP3-18; not shown: c-myc tag at the amino-terminus
Consider B4, for which the binding result in series [7] and in series [8] was “no binding” each time.

(Values after patent publication US6808893 (Johns Hopkins, dated 2004).)
